US20250154262A1

target: hFcγRIIIa-V158 (human) (UniProt P08637); test: SPR (Carterra LSA), protein AG capture
Sequence (P08637 17-208 F176V limits assumed): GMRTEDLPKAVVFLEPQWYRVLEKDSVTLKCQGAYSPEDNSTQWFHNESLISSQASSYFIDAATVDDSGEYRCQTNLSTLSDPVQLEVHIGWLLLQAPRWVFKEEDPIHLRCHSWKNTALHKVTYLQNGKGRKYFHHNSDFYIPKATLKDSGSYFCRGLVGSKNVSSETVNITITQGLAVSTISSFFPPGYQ

Substance	Fold-change relative to WT	Kd	koff	kon
A330Y_D376V_Y373W (antibody)	2.4 fold	123 nM	0.0786 s⁻¹	637000 M⁻¹ s⁻¹
A330Y_S267A_D376V_S298A (antibody)		67.9 nM		
H268D_A330Y_A339T_Y373W (antibody)	4.4 fold	66.3 nM	0.019 s⁻¹	287000 M⁻¹ s⁻¹
H268D_A330Y_L251W (antibody)	2 fold	149 nM	0.026 s⁻¹	174000 M⁻¹ s⁻¹
H268D_A330Y_L251W_D376V (antibody)	4.4 fold	66.2 nM	0.038 s⁻¹	574000 M⁻¹ s⁻¹
H268D_A330Y_L314K (antibody)	5.9 fold	49.1 nM	0.0189 s⁻¹	385000 M⁻¹ s⁻¹
H268D_L251F (antibody)	3.9 fold	73.9 nM	0.0243 s⁻¹	328000 M⁻¹ s⁻¹
H268D_L251F_L314G (antibody)	4.4 fold	65.8 nM	0.0253 s⁻¹	385000 M⁻¹ s⁻¹
H268D_L251F_L314K (antibody)	4.4 fold	65.6 nM	0.024 s⁻¹	366000 M⁻¹ s⁻¹
H268D_L251F_L314M_S298A (antibody)	7.9 fold	36.7 nM	0.0125 s⁻¹	340000 M⁻¹ s⁻¹
H268D_L251F_L314N (antibody)	3.9 fold	74.9 nM	0.0231 s⁻¹	309000 M⁻¹ s⁻¹
H268D_L251F_L314T (antibody)		68.2 nM		
H268D_L251F_L314V (antibody)	3.4 fold	84.4 nM	0.0225 s⁻¹	267000 M⁻¹ s⁻¹
H268D_L251I_A330F_S298A (antibody)		32.1 nM		
H268D_L251Q_L314E (antibody)	21.9 fold	13.3 nM	0.0152 s⁻¹	1.15e+06 M⁻¹ s⁻¹
H268D_L251Q_L314M (antibody)	3.1 fold	93.9 nM	0.03 s⁻¹	319000 M⁻¹ s⁻¹
H268D_L251Q_L314M_Y373W (antibody)		72.8 nM		
H268D_L251Q_Y373W (antibody)	4.1 fold	70.2 nM	0.0292 s⁻¹	416000 M⁻¹ s⁻¹
H268D_L251Q_Y373W_S298A (antibody)		25.2 nM		
H268D_L251W (antibody)	4 fold	72.8 nM	0.0682 s⁻¹	936000 M⁻¹ s⁻¹
H268D_L251W_A330Y_Y373W (antibody)	3.9 fold	74.6 nM	0.044 s⁻¹	590000 M⁻¹ s⁻¹
H268D_L251W_L314K (antibody)	3.3 fold	87.8 nM	0.0476 s⁻¹	542000 M⁻¹ s⁻¹
H268D_L251W_L314M_S298A (antibody)	4.2 fold	69.1 nM	0.0269 s⁻¹	389000 M⁻¹ s⁻¹
H268D_L251W_L314M_Y373W (antibody)	1.9 fold	151 nM	0.065 s⁻¹	431000 M⁻¹ s⁻¹

Substance	Fold-change relative to WT	Kd	koff	kon
H268D_L251W_L314S (antibody)	9.4 fold	31.1 nM	0.119 s⁻¹	3.83e+06 M⁻¹ s⁻¹
H268D_L251W_L314V (antibody)	3.1 fold	92.8 nM	0.0231 s⁻¹	249000 M⁻¹ s⁻¹
H268D_L251W_S298A (antibody)	6.3 fold	46 nM	0.0213 s⁻¹	463000 M⁻¹ s⁻¹
H268D_L251W_Y373W (antibody)		86.8 nM		
H268D_S267D_L251I_A339T (antibody)	4.8 fold	60.7 nM	0.0212 s⁻¹	348000 M⁻¹ s⁻¹
H268E_L251Q_A339T_L314A (antibody)		118 nM		
H268E_L251W_L314I_A330F (antibody)	2.6 fold	111 nM	0.0308 s⁻¹	276000 M⁻¹ s⁻¹
L251F_A339T_L314S_Y373W (antibody)		204 nM		
L251F_S267A_L314S (antibody)	1.7 fold	174 nM	0.038 s⁻¹	218000 M⁻¹ s⁻¹
L251I_L314G_A339T_A330F (antibody)	0.2 fold	1610 nM	0.062 s⁻¹	38500 M⁻¹ s⁻¹
L314W_A339T_A330M_D376T (antibody)	1.6 fold	179 nM	0.045 s⁻¹	252000 M⁻¹ s⁻¹
S267D_A330Y_A339T (antibody)	2.7 fold	109 nM	0.035 s⁻¹	320000 M⁻¹ s⁻¹
S267D_A330Y_L251W (antibody)	2.6 fold	111 nM	0.0391 s⁻¹	353000 M⁻¹ s⁻¹
S267D_A330Y_L251W_D376V (antibody)	3.2 fold	91.4 nM	0.036 s⁻¹	394000 M⁻¹ s⁻¹
S267D_A330Y_L314K (antibody)		268 nM		
S267D_A330Y_Y373W (antibody)	2.3 fold	124 nM	0.0371 s⁻¹	298000 M⁻¹ s⁻¹
S267D_L314T_A339T (antibody)		208 nM		
S298A_A330Y_A339T (antibody)		58.4 nM		
S298A_A330Y_A339T_Y373W (antibody)	3.1 fold	93.3 nM	0.0206 s⁻¹	221000 M⁻¹ s⁻¹
S298A_A330Y_D376V (antibody)	3.8 fold	77.2 nM	0.0285 s⁻¹	369000 M⁻¹ s⁻¹
S298A_A330Y_L251W_D376V (antibody)	2.3 fold	127 nM	0.0308 s⁻¹	243000 M⁻¹ s⁻¹
S298A_A330Y_L314K (antibody)	3.3 fold	88.4 nM	0.0207 s⁻¹	235000 M⁻¹ s⁻¹
S298A_A330Y_Y373W (antibody)	1.2 fold	251 nM	0.0344 s⁻¹	137000 M⁻¹ s⁻¹

Further lines, results first:

Fold-change relative to WT	Kd	koff	kon	Substance
4.1 fold	71.7 nM	0.025 s⁻¹	349000 M⁻¹ s⁻¹	H268D_A330Y_Y373W (antibody)
6.4 fold	45.4 nM	0.0126 s⁻¹	278000 M⁻¹ s⁻¹	H268D_A339T_S298A (antibody)
3.3 fold	88.3 nM	0.025 s⁻¹	283000 M⁻¹ s⁻¹	H268D_L251F_L314M (antibody)
3.7 fold	79.5 nM	0.023 s⁻¹	289000 M⁻¹ s⁻¹	H268D_L251F_L314M_Y373W (antibody)
4 fold	73 nM	0.027 s⁻¹	370000 M⁻¹ s⁻¹	H268D_L251F_L314S (antibody)
1.8 fold	163 nM	0.0241 s⁻¹	148000 M⁻¹ s⁻¹	H268D_L251F_L314W (antibody)
3.3 fold	88.2 nM	0.0228 s⁻¹	258000 M⁻¹ s⁻¹	H268D_L251F_Y373W (antibody)
2.7 fold	107 nM	0.047 s⁻¹	438000 M⁻¹ s⁻¹	H268D_L251Q (antibody)
6.3 fold	45.9 nM	0.0246 s⁻¹	536000 M⁻¹ s⁻¹	H268D_L251Q_L314G (antibody)
1.5 fold	188 nM	0.0564 s⁻¹	300000 M⁻¹ s⁻¹	H268D_L251W_L314M (antibody)
8.4 fold	34.5 nM	0.0223 s⁻¹	647000 M⁻¹ s⁻¹	H268D_L251W_L314N (antibody)
	51.7 nM			H268D_L251W_L314T_S298A (antibody)
2.4 fold	123 nM	0.049 s⁻¹	397000 M⁻¹ s⁻¹	H268D_L251W_S267D_Y373W (antibody)
3.3 fold	89.1 nM	0.034 s⁻¹	381000 M⁻¹ s⁻¹	H268D_L251W_Y373W_S298A (antibody)
	133 nM			H268D_L314K_L251Q (antibody)
7.6 fold	38.4 nM	0.0198 s⁻¹	516000 M⁻¹ s⁻¹	H268D_L314W_Y373W_A330M (antibody)
5.1 fold	57.6 nM	0.021 s⁻¹	365000 M⁻¹ s⁻¹	H268E_L314V_L251A_A330M (antibody)
	104 nM			L251F (antibody)
	286 nM			L314N_S267A_A330M_D376T (antibody)
1.5 fold	190 nM	0.035 s⁻¹	184000 M⁻¹ s⁻¹	L314V_A330F_Y373W_H268A (antibody)
2 fold	145 nM	0.0406 s⁻¹	279000 M⁻¹ s⁻¹	S267D_A330Y_D376V (antibody)
2.3 fold	124 nM	0.036 s⁻¹	290000 M⁻¹ s⁻¹	S267D_L314W_L251H_D376V (antibody)
3.2 fold	90.4 nM	0.038 s⁻¹	421000 M⁻¹ s⁻¹	S298A_A330Y_L251W (antibody)

target: hFcγRIIIa-V158 (human) (UniProt P08637); test: SPR, further study

Substance	Fold Change vs. WT	Kd	koff	kon
H268D, A330F, S298A (antibody)	6 fold	80.1 nM	0.0311 s⁻¹	389000 M⁻¹ s⁻¹
H268D, L314N (antibody)	4.9 fold	96.5 nM	0.0452 s⁻¹	471000 M⁻¹ s⁻¹
H268D, L314S (antibody)	3.1 fold	152 nM	0.0434 s⁻¹	286000 M⁻¹ s⁻¹

Results, then the substance that gave them:

Fold Change vs. WT	Kd	koff	kon	Substance
3 fold	159 nM	0.0516 s⁻¹	324000 M⁻¹ s⁻¹	H268D, L314K (antibody)
	85.1 nM			H268D, L314M, S298A (antibody)
10.2 fold	46.8 nM	0.0217 s⁻¹	465000 M⁻¹ s⁻¹	H268D, L314T, S298A (antibody)
